# Entries after “also recorded” stand apart in the source; their conditions may differ.
# Assays:
# dGA = dGA (Homo sapiens, UniProt P10636); assay: Biacore X100 SPR, scAb captured via anti-HuCk, dGA as analyte; assay type: binding; conditions: dissociation rate
# Description: Surface plasmon resonance (SPR) is widely regarded as the gold standard for real time measurement of protein-protein interactions such as antibody binding. All SPR experiments were carried out using a Biacore X100 machine and HBS EP+ running buffer (GE Healthcare). A ‘capture’ method was followed for affinity measurements, where an anti-human constant kappa chain (HuCk) antibody was conjugated to the surface of a CM5 sensor chip using an amine coupling kit and scAb molecules were immobilised via their HuCk domain. Amine coupling is a very common approach for immobilising the ligand to the chip surface. The chip surface has a dextran matrix derivatised with carboxyl groups, which after activation with N-hydroxysuccinimide (NHS) and 1-ethyl-3-(3-dimethylaminopropyl) carbodiimide (EDC), form reactive succinimide esters which allows the covalent capturing of the ligand via any available primary amine groups (e.g. Lysine) on the ligand (in this case anti-HuCk antibody). The capture antibody was diluted 1/100 in 10 mM Sodium acetate buffer pH 5.0 and passed over the activated chip surface for a period of at least 420 s. Final ligand immobilisation levels over 12,000 RU were deemed to be satisfactory.
# Following immobilisation, the level of each scAb to be captured was identified using the standard SPR equation with a theoretical RMax of 100 RU. Analyte MW refers to the molecular weight of hT40 or dGA/dGAE molecules, while ligand MW refers to the molecular weight of the scAbs tested. RL is the desired capture level and S refers to the stoichiometric ratio:
# The scAb to be tested was added only to flow cell 2 so that flow cell 1 could act as a control to subtract any interaction with the analyte and the chip surface. Both single and multi-cycle runs were utilised using wizards developed in the Biacore X100 control software which are both accepted methods of kinetic analysis (Karlsson, R., et al. Analyzing a kinetic titration series using affinity biosensors (2006) Analytical Biochemistry 349:136-47). The multi-cycle protocol was as follows-Three start-up cycles composed of an initial capture, to the desired level, of the scAb to be tested was performed followed by a 30 s injection of glycine buffer pH 2.0 after each cycle to regenerate the chip surface. The regeneration step removed any captured scAb whilst leaving the capture antibody intact and able to repeat the capture for the next cycle. Following three start-up cycles increasing concentrations (0.15625 nM-100 nM) of the target to be tested were added to the chip surface after the desired scAb capture. The target was added for a 120 s association period and 420 s dissociation period followed by another regeneration, 30 s injection of glycine buffer pH 2.0 in between each cycle.
# The single cycle kinetics protocol was similar and utilised the same level of scAb capture. Three start-up cycles were used followed by 5 increasing concentrations of the analyte (6.25 nM-100 nM) for an association period of 120 s followed by a dissociation period of 420 s for each concentration. In single cycle kinetics the regeneration step was performed only after the final analyte concentration was added. Binding responses were analysed in Biacore X100 evaluation software and data fitted to a 1:1 binding model to obtain kinetic and affinity characterisation.
# htau40 = htau40 (Homo sapiens, UniProt P10636); assay: Biacore X100 SPR of anti-tau mAbs on immobilised htau40; assay type: binding; conditions: mAb, Table 27, immobilised hT40
# Summary of the method: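 htau40 amine-coupled to a CM5 chip (~250 RU); mAb injected at 0.78–25 nM in HBS-EP+ at 30 μL/min, 120 s association, 600 s dissociation, glycine pH 1.5 regeneration. Kinetics and affinity from 1:1 binding fit with reference-cell subtraction.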
# [1] = system: alanine substituted 13mer tau peptides; assay: Alanine scanning mutagenesis (ASM) peptide ELISA; assay type: binding, human; conditions: numbering according to SEQ ID NO: 1; description text 'may be'
# Description: To further elucidate epitopes of the scAb panel, and identify the critical amino acids needed for binding, alanine scanning mutagenesis of the parent 13 aa peptides for scAbs CE2, S1D12, CA4 and S1G2 was performed. […] Briefly, 5 μg/ml streptavidin (Thermo Fisher) was adsorbed to Nunc 96-well MaxiSorp plates and following incubation at 37° C., for 1 h, the plates were washed as normal and blocked with 2% MPBS. N-terminally biotinylated peptides (Prolmmune Ltd) were added to the plates and incubated for 1 h at 37° C. Subsequently, test scAbs at starting concentrations of 100-500 nM was added and double diluted across the plate for each peptide and incubated for 1 h at 37° C. Rest of the ELISA was conducted as described above and the plates were read at absorbance 450 nm. Immunoreactivity of the scAb of interest was quantified as the % of scAb was bound for each peptide at a chosen concentration (FIG. 15-20).
# human tau and mouse tau = assay: Western blot of WT, L66+/+ and L1+/+ mouse brain homogenates; assay type: binding; conditions: 20 μg protein, 5-month-old mice
# Description: Protein equivalent to 20 μg from each brain extract was separated using 4-20% bis-tris gels and run in 1×MES buffer.
# A band is detected in each sample (WT, L66^+/+ and L1^+/+) with an apparent molecular weight of approximately 55 kDa. This band most likely corresponds to endogenous mouse tau which is of a similar size. In the L66^+/+ samples, a second band running at approximately 68 kDa is also detected. The presence of numerous other bands indicates proteolytic truncation of tau within brain homogenates.
# Chain of htau40 (P10636 1-441 isoform P10636-8): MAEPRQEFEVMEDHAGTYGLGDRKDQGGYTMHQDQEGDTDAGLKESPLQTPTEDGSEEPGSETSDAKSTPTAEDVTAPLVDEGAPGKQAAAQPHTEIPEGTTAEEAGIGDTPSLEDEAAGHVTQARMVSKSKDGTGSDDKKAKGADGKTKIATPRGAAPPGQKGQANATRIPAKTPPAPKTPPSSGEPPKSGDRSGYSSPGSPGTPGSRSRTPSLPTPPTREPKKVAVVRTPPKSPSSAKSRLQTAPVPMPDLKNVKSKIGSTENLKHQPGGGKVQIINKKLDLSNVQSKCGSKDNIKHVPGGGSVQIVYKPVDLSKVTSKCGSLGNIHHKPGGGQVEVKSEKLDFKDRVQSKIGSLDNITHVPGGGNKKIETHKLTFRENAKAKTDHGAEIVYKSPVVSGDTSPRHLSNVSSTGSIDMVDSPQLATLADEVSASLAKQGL
# Chain of dGA (P10636 614-707): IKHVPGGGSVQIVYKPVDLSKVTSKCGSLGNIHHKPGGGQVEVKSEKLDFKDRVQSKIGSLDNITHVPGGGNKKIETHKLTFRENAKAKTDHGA
Molecule,Kd (dGA),ka (htau40),kd (htau40),Critical residues of the epitope [1],"bands detected in western blot of WT, L66+/+ and L1+/+ brain homogenates (human tau and mouse tau)"
"S1D12: anti-tau clone from immunised sheep, SEQ ID NO: 32 (protein, S1D12 amino acid sequence) scFv: QVQLQESGPSLVKPSQTLSLTCTVSGFSLNNNAVGWVRQAPGKVPESLVGCSSDGTCYYNSALKSRLDITRDTSKNQISLSLSSVTTDDAAVYYCTRGHYSIYGYDYLGTIDYWGPGLLVTVSSEGKSSGASGESKVDDQAVLTQPSSVSGSLGQRVSITCSGSSSNVGGGNSVGWYQHLPGSGLKTIIYDTNSRPSGVPDRFSGSRSGNTATLTINSLQAEDEGDYYCVTGDSTTHDDLVGSGTRLTVLG",0.000418 s⁻¹,405800 M⁻¹ s⁻¹,4.093e-05 s⁻¹,"343 (K), 346 (F) and/or 349 (R)",numerous bands visible in each mouse sample
"S1G2: anti-tau clone, SEQ ID NO: 81 (protein, S1G2 amino acid sequence) scFv: QVQLQESGPSLVKPSQTLSLTCTVSGFSLTSNSVGWVRQAPGKAPEWVAGIDTDGEEGYNPALNSRLSITRDTSKSQVSLSLSSVTSEDTAVYYCGRSYRADGLAYGYVQAIDYWGPGLLVTVSSEGKSSGASGESKVDDQAVVTQPSSVSGSLGQRVSITCSGSFIGISSVGWFQQLPGSGLRTIIVASDGRPSGVPDRFSMSKSGNTATLTISSLQAEDEADYFCGSSDRTPYTGVFGSGTRLTVLG",0.0003499 s⁻¹,339800 M⁻¹ s⁻¹,4.748e-05 s⁻¹,370 (K) and/or 374 (H),numerous bands visible in each mouse sample; also recorded: able to detect the pathologic 10-kDa tau fragment

# — patent publication US12624096B2, “Anti-tau antibodies and methods of use thereof” (GTInvent Limited, priority 2020, dated 2026)
